US20180066035A1 (published 2018)

Tests used:
[1] = molecular target: human ICAM-1 on cells (HeLa, 8505C, 8505C/LPS, HMEC-1, T cells) (human) (UniProt P05362); assay: cell-based or functional assay
[2] = molecular target: murine ICAM-1 on bEnd.3 cells (mouse) (UniProt P13597); assay: cell-based or functional assay
[3] = molecular target: T1, human ICAM-1 (immobilized, SPR) (human, UniProt P05362 28-480, limits assumed); assay: SPR, I domain over immobilized human ICAM-1
T1 construct: Form immobilized on the SPR chip is not described; also called Intercellular adhesion molecule-1; CD54
T1 sequence (P05362 28-480 limits assumed): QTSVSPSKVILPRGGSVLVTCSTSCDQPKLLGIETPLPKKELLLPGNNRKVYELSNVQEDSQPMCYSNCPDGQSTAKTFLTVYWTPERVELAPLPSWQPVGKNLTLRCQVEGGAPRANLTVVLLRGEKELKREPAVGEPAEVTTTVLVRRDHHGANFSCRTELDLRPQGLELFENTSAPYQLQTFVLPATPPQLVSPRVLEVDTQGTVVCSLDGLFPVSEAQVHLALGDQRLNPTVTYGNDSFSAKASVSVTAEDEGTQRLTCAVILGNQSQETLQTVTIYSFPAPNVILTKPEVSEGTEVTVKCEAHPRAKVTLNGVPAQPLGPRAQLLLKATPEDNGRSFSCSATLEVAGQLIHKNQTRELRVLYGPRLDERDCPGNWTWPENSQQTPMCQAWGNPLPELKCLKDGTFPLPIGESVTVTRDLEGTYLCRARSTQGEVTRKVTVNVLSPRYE

[4] = molecular target: T2, human ICAM-1 on cells (HeLa, 8505C, 8505C/LPS, HMEC-1, T cells) (human, UniProt P05362 28-532); assay: estimated from titrated R6.5 antibody binding to HeLa cells
T2 construct: whole, on cells
T2 sequence (P05362 28-532): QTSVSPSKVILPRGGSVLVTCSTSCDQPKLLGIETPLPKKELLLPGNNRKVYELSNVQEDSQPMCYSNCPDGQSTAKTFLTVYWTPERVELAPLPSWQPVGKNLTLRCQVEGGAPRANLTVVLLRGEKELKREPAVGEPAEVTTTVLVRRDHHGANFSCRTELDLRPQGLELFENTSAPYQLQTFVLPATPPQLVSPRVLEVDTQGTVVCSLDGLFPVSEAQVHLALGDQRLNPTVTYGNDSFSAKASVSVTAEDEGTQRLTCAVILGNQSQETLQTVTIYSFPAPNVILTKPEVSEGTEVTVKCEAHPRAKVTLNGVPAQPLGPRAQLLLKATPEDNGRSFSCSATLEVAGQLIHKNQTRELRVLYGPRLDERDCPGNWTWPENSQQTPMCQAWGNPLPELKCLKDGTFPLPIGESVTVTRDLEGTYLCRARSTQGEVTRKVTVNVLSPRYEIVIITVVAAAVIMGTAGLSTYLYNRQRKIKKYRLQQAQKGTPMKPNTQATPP

[5] = molecular target: T3, recombinant human ICAM-1 fused to human Fcγ (R&D Systems) (human, UniProt P05362 28-480); assay: estimated from flow cytometry MFI of ICAM-1-Fc binding to yeast cells expressing the I domain variant
T3 construct: Bought reagent; also called ICAM-1-Fc; human ICAM-1-Fcγ; not shown: human Fcγ
T3 sequence (P05362 28-480 limits assumed): as the sequence (P05362 28-480 limits assumed) above

[6] = molecular target: T1, human ICAM-1 (immobilized, SPR); assay: SPR
murine ICAM-1 (SPR) = murine ICAM-1 (SPR) (murine, UniProt P13597 28-485, limits assumed); assay: SPR, F265S/F292G flowed over murine ICAM-1 (FIG. 1C)
Sequence of murine ICAM-1 (SPR) (P13597 28-485 limits assumed): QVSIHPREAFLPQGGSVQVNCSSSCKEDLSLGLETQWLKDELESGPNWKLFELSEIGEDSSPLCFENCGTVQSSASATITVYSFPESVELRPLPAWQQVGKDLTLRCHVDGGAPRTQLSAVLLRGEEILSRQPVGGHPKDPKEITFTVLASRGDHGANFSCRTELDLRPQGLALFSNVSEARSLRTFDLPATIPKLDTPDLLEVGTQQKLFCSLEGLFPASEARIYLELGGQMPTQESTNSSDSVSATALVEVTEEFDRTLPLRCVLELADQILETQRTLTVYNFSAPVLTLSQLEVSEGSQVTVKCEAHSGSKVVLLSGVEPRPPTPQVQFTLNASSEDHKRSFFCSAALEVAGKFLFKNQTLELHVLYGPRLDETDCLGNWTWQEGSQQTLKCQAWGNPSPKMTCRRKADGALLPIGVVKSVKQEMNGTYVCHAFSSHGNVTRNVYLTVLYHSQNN

[7] = molecular target: T1, human ICAM-1 (immobilized, SPR); assay: comparison of the Table 1 affinities

Sequence of human ICAM-1 on cells (HeLa, 8505C, 8505C/LPS, HMEC-1, T cells) (human) (P05362 28-532): as the sequence (P05362 28-532) above
Sequence of murine ICAM-1 on bEnd.3 cells (mouse) (P13597 28-537): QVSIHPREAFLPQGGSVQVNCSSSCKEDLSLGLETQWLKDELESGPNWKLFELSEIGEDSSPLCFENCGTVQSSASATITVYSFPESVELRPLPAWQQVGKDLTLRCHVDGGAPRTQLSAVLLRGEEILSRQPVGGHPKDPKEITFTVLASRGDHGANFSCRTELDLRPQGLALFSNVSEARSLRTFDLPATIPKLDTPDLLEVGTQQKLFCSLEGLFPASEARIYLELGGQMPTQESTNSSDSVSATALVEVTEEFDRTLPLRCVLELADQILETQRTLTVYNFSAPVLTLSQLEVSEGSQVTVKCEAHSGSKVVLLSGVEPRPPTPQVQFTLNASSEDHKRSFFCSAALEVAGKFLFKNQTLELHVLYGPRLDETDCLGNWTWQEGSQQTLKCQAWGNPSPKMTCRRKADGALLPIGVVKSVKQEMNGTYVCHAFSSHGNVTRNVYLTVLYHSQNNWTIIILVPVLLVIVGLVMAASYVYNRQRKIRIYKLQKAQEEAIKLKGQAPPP

B1: TM (F265S/F292G/G311C) I domain CAR (receptor, part only; not given: Tag, hinge, transmembrane and signaling domains, not shown: another chain or arm of the molecule; a dimerising Fc or GST; small tags and cut ends)
chain: ECIKGNVDLVFLFDGSMSLQPDEFQKILDFMKDVMKKLSNTSYQFAAVQFSTSYKTEFDFSDYVKWKDPDALLKHVKHMLLLTNTFGAINYVATEVFREELGARPDATKVLIIITDGEATDSGNIDAAKDIIRYIIGIGKHSQTKESQETLHKFASKPASEFVKILDTGEKLKDLFTELQKKIYVIECTS
modifications: Disulfide bond between Cys-125 (chain position 2) and the introduced Cys-311 (chain position 188), per paragraph 45.
time (hours) to 50% killing, 8505C target cells [1]: 17.1 h | time (hours) to 50% killing, 8505C/-ICAM-1 target cells [1]: 32.6 h | time (hours) to 50% killing, 8505C/LPS target cells [1]: 15.1 h | time (hours) to 50% killing, HMEC target cells [1]: 13.4 h | time (hours) to 50% killing, HeLa target cells [1]: 10.8 h | time (hours) to 50% killing, bEND3 target cells [2]: 13 h

B2: F265S/F292G/G311C (TM) LFA-1 I domain (receptor)
chain: ECIKGNVDLVFLFDGSMSLQPDEFQKILDFMKDVMKKLSNTSYQFAAVQFSTSYKTEFDFSDYVKWKDPDALLKHVKHMLLLTNTFGAINYVATEVFREELGARPDATKVLIIITDGEATDSGNIDAAKDIIRYIIGIGKHSQTKESQETLHKFASKPASEFVKILDTGEKLKDLFTELQKKIYVIECTS
modifications: disulfide bond between Cys-311 (G311C) and naturally unpaired Cys-125
notes: also called triple mutant
Kd [3]: ~0.001 µM

B3: R6.5 (mouse anti-human ICAM-1 monoclonal antibody from hybridoma; scFv derived from it) (antibody, V domains shown)
VH: QVQLQQSGPELVRPGVSVKISCKGSGYTFIDYAIHWVKESHAKSLEWIGVISAYSGDTNYNQKFKGKATMTVDKSSNTAYLELARLTSEDSAIYYCARGGWLLLSFDYWGQGTTLTVSS
VL: DVVMTQSPLSLPVSLGDQASISCRSSQSLVHSNGNNYLHWYLQKSGQAPKLLIYKVSNRFSGVPDRFSGSGSGTDFTLKISRVEAEDLGVYFCSQSTHVPLTFGGGTKLEIK
Kd [4]: 0.01 µM

B4: Wild-type (WT) LFA-1 I domain (receptor)
chain: GNVDLVFLFDGSMSLQPDEFQKILDFMKDVMKKLSNTSYQFAAVQFSTSYKTEFDFSDYVKWKDPDALLKHVKHMLLLTNTFGAINYVATEVFREELGARPDATKVLIIITDGEATDSGNIDAAKDIIRYIIGIGKHFQTKESQETLHKFASKPASEFVKILDTFEKLKDLFTELQKKIYVIEG
notes: I domain of the αL subunit of human LFA-1; also called WT I domain; wild-type human I domain
Kd [3]: 1500 µM

B5: F292S LFA-1 I domain (receptor)
chain: GNVDLVFLFDGSMSLQPDEFQKILDFMKDVMKKLSNTSYQFAAVQFSTSYKTEFDFSDYVKWKDPDALLKHVKHMLLLTNTFGAINYVATEVFREELGARPDATKVLIIITDGEATDSGNIDAAKDIIRYIIGIGKHFQTKESQETLHKFASKPASEFVKILDTSEKLKDLFTELQKKIYVIEG
Kd [5]: 1.24 µM

B6: F265S LFA-1 I domain (receptor)
chain: GNVDLVFLFDGSMSLQPDEFQKILDFMKDVMKKLSNTSYQFAAVQFSTSYKTEFDFSDYVKWKDPDALLKHVKHMLLLTNTFGAINYVATEVFREELGARPDATKVLIIITDGEATDSGNIDAAKDIIRYIIGIGKHSQTKESQETLHKFASKPASEFVKILDTFEKLKDLFTELQKKIYVIEG
Kd [3]: 0.145 µM

B7: F265S/F292G (DM) LFA-1 I domain (receptor)
chain: GNVDLVFLFDGSMSLQPDEFQKILDFMKDVMKKLSNTSYQFAAVQFSTSYKTEFDFSDYVKWKDPDALLKHVKHMLLLTNTFGAINYVATEVFREELGARPDATKVLIIITDGEATDSGNIDAAKDIIRYIIGIGKHSQTKESQETLHKFASKPASEFVKILDTGEKLKDLFTELQKKIYVIEG
fold higher affinity than the wild-type (WT) I domain [6]: ~200000 fold | Kd [3]: 0.006 µM | Kd (murine ICAM-1 (SPR)): 0.002 µM

B8: L289G LFA-1 I domain (receptor)
chain: GNVDLVFLFDGSMSLQPDEFQKILDFMKDVMKKLSNTSYQFAAVQFSTSYKTEFDFSDYVKWKDPDALLKHVKHMLLLTNTFGAINYVATEVFREELGARPDATKVLIIITDGEATDSGNIDAAKDIIRYIIGIGKHFQTKESQETLHKFASKPASEFVKIGDTFEKLKDLFTELQKKIYVIEG
Kd [5]: 0.196 µM

B9: I288N LFA-1 I domain (receptor)
chain: GNVDLVFLFDGSMSLQPDEFQKILDFMKDVMKKLSNTSYQFAAVQFSTSYKTEFDFSDYVKWKDPDALLKHVKHMLLLTNTFGAINYVATEVFREELGARPDATKVLIIITDGEATDSGNIDAAKDIIRYIIGIGKHFQTKESQETLHKFASKPASEFVKNLDTFEKLKDLFTELQKKIYVIEG
Kd [5]: 202 µM

B10: F292A LFA-1 I domain (receptor)
chain: GNVDLVFLFDGSMSLQPDEFQKILDFMKDVMKKLSNTSYQFAAVQFSTSYKTEFDFSDYVKWKDPDALLKHVKHMLLLTNTFGAINYVATEVFREELGARPDATKVLIIITDGEATDSGNIDAAKDIIRYIIGIGKHFQTKESQETLHKFASKPASEFVKILDTAEKLKDLFTELQKKIYVIEG
time (hours) to 50% killing, 8505C target cells [1]: 41.5 h | time (hours) to 50% killing, 8505C/LPS target cells [1]: 30.8 h | time (hours) to 50% killing, HeLa target cells [1]: 18.7 h | fold lower affinity than the scFv-based R6.5 CAR [7]: > 1000 fold | Kd [3]: 20 µM

B11: I309T LFA-1 I domain (receptor)
chain: GNVDLVFLFDGSMSLQPDEFQKILDFMKDVMKKLSNTSYQFAAVQFSTSYKTEFDFSDYVKWKDPDALLKHVKHMLLLTNTFGAINYVATEVFREELGARPDATKVLIIITDGEATDSGNIDAAKDIIRYIIGIGKHFQTKESQETLHKFASKPASEFVKILDTFEKLKDLFTELQKKIYVTEG
Kd [5]: 127 µM

B12: L295A LFA-1 I domain (receptor)
chain: GNVDLVFLFDGSMSLQPDEFQKILDFMKDVMKKLSNTSYQFAAVQFSTSYKTEFDFSDYVKWKDPDALLKHVKHMLLLTNTFGAINYVATEVFREELGARPDATKVLIIITDGEATDSGNIDAAKDIIRYIIGIGKHFQTKESQETLHKFASKPASEFVKILDTFEKAKDLFTELQKKIYVIEG
Kd [5]: 37 µM

B13: F292G LFA-1 I domain (receptor)
chain: GNVDLVFLFDGSMSLQPDEFQKILDFMKDVMKKLSNTSYQFAAVQFSTSYKTEFDFSDYVKWKDPDALLKHVKHMLLLTNTFGAINYVATEVFREELGARPDATKVLIIITDGEATDSGNIDAAKDIIRYIIGIGKHFQTKESQETLHKFASKPASEFVKILDTGEKLKDLFTELQKKIYVIEG
time (hours) to 50% killing, 8505C target cells [1]: 27.3 h | time (hours) to 50% killing, 8505C/LPS target cells [1]: 24 h | time (hours) to 50% killing, HMEC target cells [1]: 21.1 h | time (hours) to 50% killing, HeLa target cells [1]: 14.9 h | time (hours) to 50% killing, bEND3 target cells [2]: 16.2 h | Kd [3]: 0.119 µM
